From US20010052137 come the findings set out here.

In series [1] the test system is Myc-tagged full length Xenopus axin (FL Xaxin, amino acid residues 1-842).
Series [2] has as its system T1, Myc-tagged GID-1 fragment of Xaxin (amino acid residues 277-545).
T1 sequence: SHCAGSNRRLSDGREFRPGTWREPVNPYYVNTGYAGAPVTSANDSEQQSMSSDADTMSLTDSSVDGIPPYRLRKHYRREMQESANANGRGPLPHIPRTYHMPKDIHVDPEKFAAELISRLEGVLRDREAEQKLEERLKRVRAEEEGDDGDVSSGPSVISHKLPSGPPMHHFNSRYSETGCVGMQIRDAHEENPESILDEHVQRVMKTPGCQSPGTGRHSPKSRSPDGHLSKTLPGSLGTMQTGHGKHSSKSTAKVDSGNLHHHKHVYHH

Series [3] has as its system T2, Myc-tagged C-term fragment of Xaxin (amino acid residues 429-713).
T2 sequence: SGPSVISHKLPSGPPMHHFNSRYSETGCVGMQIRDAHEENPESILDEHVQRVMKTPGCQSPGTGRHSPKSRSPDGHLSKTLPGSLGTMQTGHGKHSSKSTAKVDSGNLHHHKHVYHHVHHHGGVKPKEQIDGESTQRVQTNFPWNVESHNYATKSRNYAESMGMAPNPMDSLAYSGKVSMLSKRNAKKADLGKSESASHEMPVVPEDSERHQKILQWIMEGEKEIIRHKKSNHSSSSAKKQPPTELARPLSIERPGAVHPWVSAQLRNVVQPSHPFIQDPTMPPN

Series [4] concerns Myc-tagged N-term fragment of Xaxin (amino acid residues 63-288).
Sequence of Myc-tagged N-term fragment of Xaxin (amino acid residues 63-288) (chain, as listed by the source): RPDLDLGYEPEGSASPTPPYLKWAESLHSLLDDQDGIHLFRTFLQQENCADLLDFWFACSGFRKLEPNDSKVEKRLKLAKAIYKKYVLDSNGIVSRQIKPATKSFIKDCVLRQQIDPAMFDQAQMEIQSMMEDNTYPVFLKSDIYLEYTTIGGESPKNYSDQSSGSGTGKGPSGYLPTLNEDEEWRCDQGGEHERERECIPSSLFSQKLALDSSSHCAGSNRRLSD
Series [5] relates to T3, Myc-tagged deltaRGS construct of Xaxin (amino acid residues 1-80 fused to residues 290-842).
T3 sequence: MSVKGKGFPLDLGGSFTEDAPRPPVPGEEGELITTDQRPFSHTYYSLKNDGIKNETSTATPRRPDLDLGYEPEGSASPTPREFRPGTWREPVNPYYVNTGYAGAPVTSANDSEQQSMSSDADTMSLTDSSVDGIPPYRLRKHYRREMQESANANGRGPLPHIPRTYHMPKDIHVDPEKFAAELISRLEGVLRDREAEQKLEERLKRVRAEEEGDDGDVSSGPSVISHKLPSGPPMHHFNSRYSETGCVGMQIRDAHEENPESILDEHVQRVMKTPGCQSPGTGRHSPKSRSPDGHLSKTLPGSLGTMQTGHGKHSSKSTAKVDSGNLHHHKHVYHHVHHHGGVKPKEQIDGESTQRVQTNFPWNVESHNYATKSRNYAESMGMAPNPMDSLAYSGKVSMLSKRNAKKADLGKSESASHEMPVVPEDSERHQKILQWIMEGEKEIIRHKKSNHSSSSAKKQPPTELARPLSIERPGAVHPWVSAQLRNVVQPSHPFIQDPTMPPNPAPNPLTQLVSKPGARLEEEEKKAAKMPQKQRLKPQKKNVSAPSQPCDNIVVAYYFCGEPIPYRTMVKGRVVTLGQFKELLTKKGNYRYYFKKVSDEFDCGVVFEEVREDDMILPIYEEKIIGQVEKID

Series [6] deals with Myc-tagged deltaDIX construct of Xaxin (amino acid residues 1-778).
Series [7] deals with Myc-tagged deltaGID construct of Xaxin (amino acid residues 1-324 fused to residues 504-842).

Consider “GSK-3 beta (glycogen synthase kinase-3 beta) expressed in Xenopus oocytes”, for which the “GSK-3 beta-mediated tau phosphorylation in Xenopus oocytes (PHF-1 immunoblot)” value is “had no discernible effect on tau phosphorylation” in series [1], “virtually complete inhibition of GSK-3 beta-mediated tau phosphorylation” in series [2], “had no effect on GSK-3 beta activity” in series [3] and “had no effect on GSK-3 beta activity” in series [4]. In addition, in series [2], the “GSK-3 beta mediated tau phosphorylation in Xenopus oocytes” value is “bound GSK-3 beta and inhibited GSK-3 beta mediated tau phosphorylation”. In series [5], the “tau protein phosphorylation mediated by GSK-3 beta in Xenopus oocytes” value was “inhibited tau protein phosphorylation mediated by GSK-3 beta in a dose-dependent manner”. The “GSK-3 beta activity (tau phosphorylation assay in Xenopus oocytes)” value in series [6] is “partially inhibited GSK-3 beta activity”. Moreover, in series [7], the “GSK-3 beta activity in the tau-phosphorylation assay in Xenopus oocytes” value is recorded as “had no discernible effect on GSK-3 beta activity in the tau-phosphorylation assay”.
